# Test results: the DeepSol protein solubility set
# Experiment: soluble on expression in E. coli; label from the status in PepcDB or PDB records
row,Sequence,soluble on expression in E. coli
1,GSGTGAGEGHEGYVTRKHEWDSTTKKASNRSWDKVYMAAKAGRISFYKDQKGYKSNPELTFRGEPSYDLQNAAIEIASDYTKKKHVLRVKLANGALFLLQAHDDTEMSQWVTSLKAQSDSTA,soluble
2,MGHHHHHHSHMGLQQEISLQPWCHHPAESCQTTTDMTERLSAEQIKEYKGVFEMFDEEGNGEVKTGELEWLMSLLGINPTKSELASMAKDVDRDNKGFFNCDGFLALMGVYHEKAQNQESELRAAFRVFDKEGKGYIDWNTLKYVLMNAGEPLNEVEAEQMMKEADKDGDRTIDYEEFVAMMTGESFKLIQ,soluble
3,MSLKNLQCELDWERRFDGMQQHLGQHLLSGCFYDLFGANTCGFHLGKEISTVDIVGFLDEKTIREAEKEANRLIFENLEVKSYAPSKKELKKVKTRRALPKTDEEIRIVEIVGLDLNACCGVHPRNTRDLQVIKIRRWEKHKNATRIEYVAGNRAVSEGHHHHHH,not soluble
4,AIELVPEHQTVPVSIGVPATLRCSMKGEAIGNYYINWYRKTQGNTMTFIYREKDIYGPGFKDNFQGDIDIAKNLAVLKILAPSERDEGSYYCACDTLGMGGEYTDKLIFGKGTRVTVEPRSQPHTKPSVFVMKNGTNVACLVKEFYPKDIRINLVSSKKITEFDPAIVISPSGKYNAVKLGKYEDSNSVTCSVQHDNKTVHSTDFEVKTDSTDHVKPKETENTKQPSKS,soluble
5,MVLKSKGSVLDLEHDNQTLKDYISVFERNKMRLTQSRLMLLQCLVQHRDWHTLAELKHHLEQNQQRTTLASIYNNLKIFAKLKLINIFVDTNRFETYYCLRHENHKHIYFFDENQRKFLTLPLQDKEALSLIGHKSKHGKIKLNDFYIVASGTLEDDQ,soluble
6,MQFPSSYWIESTQLPTFPPLSENIKTKVAVIGAGITGITTAYLLAKEGIDVVLIDSGLILNGTTGHTTAKITAQHDLIYDELINHFGMEKAGLYYESNNHALQFINETVQTYKIDCNFSNEDSYLYTTTDKGLRNLSKEYEAYQKLNIPCDYVQSLSIPIPVQSALVMKNQAQFHPLLYLKTLLAKFVEMGGKVYEQTTAMDVEKGDSPQIITKEGHRITCEYVVSCSHFPLEHHHHHH,not soluble
7,MTENIHKHRILILDFGSQYTQLVARRVRELGVYCELWAWDVTEAQIRDFNPSGIILSGGPESTTEENSPRAPQYVFEAGVPVFGVCYGMQTMAMQLGGHVEASNEREFGYAQVEVVNDSALVRGIEDALTADGKPLLDVWMSHGDKVTAIPSDFITVASTESCPFAIMANEEKRFYGVQFHPEVTHTRQGMRMLERFVRDICQCEALWTPAKIIDDAVARIREQVGDDKVILGLSGGVDSSVTAMLLHRAIGKNLTCVFVDNGLLRLNEAEQVLDMFGDHFGLNIVHVPAEDRFLSALAGENDPEAKRKIIGRVFVEVFDEEALKLEDVKWLAQGTIYPDVIESAASATGKAHVIKSHHNVGGLPKEMKMGLVEPLKELFKDEVRKIGLELGLPYDMLYRHPFPGPGLGVRVLGEVKKEYCDLLRRADAIFIEELRKADLYDKVSQAFTVFLPVRSVGVMGDGRKYDWVVSLRAVETIDFMTAHWAHLPYDFLGRVSNRIINEVNGISRVVYDISGKPPATIEWE,soluble
8,MHDRASQMVIFYALAKAGSFTAAAKQMGVSTSHVSKQLGALEETLNLKLVHRTTRSLILTDAGQQFFLYCETIYNAMTEASAIMDDERDEVAGILRLGLSQSFGTMHIIPAIDKLRNQYPDLQVEVRLFDHQADMLKDGLDLWVTNFEDLPEGYVAQRLADSNFVLAASPDYLIDKKVPHHPLDLVEHNCLTYQSRYRDYSNWDFSKGNESLCVKVSGNYRVDLAEAVRDATISGWGIAYLASYLLTNEFNDGKLIQLLPGWKASQKMPIYAVYPSRKHLPRKISAVIDFLREHIGQPPYWDKALMKRVKL,soluble
9,MRAIRVHEVGGPEVLRLEELPVPEPGPGEVLVRLLAIGVNFIDTYKRKGLYPVPAPFTLGEEGAGVVEKVGEGVVGVRPGDRVAFANVQGAYAEYLVVPAERLVPVPEGLDPKLAAAALLQGMTVHYLLKSTYPVAPGDQVLVHAGAGGVGQLLIQWAKRLGATVYATASTEEKRGLCLQAGADYALPYEGFAEAVKALSGGGVDVVYDGVGKDTFLGSLAALRPRGMLVLFGQSSGPVPPQDPQILNRMGSLFLTRPTLHHYTASRKELLFRPGEVFRGVLKGWLKVRIGAEFPLENARKGPRGPRGPKDHGQGPPPALGRGNRAHFSGSGVVYYGPFQGLM,soluble
10,MGSDKIHHHHHHMVAATSQNTFDSPRSPLYNFTMDIRPLSDVAGVILVGGRSRRMGRDKALIPLGGKPLVERVIDAFRPLFERILLVGDRGERFASYGLPVFPDIHPGSALGGLYTGLVRAGTPHVFVSACDVPWPDPRVIARLCSLREGFDVVVPRTVGGSEPLFAVYGTGCLPAMERMLREGNYRIYDFYPEVRTRYVEQAELADLVTPARTFVNVNTPEEFETIRNREEGMAIKAVSFVAKSGTGKTTLLEKVIAELKGRGYRIGVIKHDAHRFDIDHPGKDSHRLAAAGADTMLIASPEKLALVKKYDESPPLDELLATYFGDVDIVLTEGFKKSSLPKIEVHRMERSATLLCRGEEHDPTLVAVASDAALALDVPVFDLNNPAQVADFVERTFLAAGAA,not soluble
11,MAHHHHHHMPSLNNNTIREDVIFKRRVKDVLLRHGGTGGLVKVLIDFNAREAVAARQQRQTTSTDSGSSRTDVGLSHAQLLLFLQDYGVELTPFEAAYLCRAFDDHGSGFISGETFTRHLTGLNERRLRAVKKAWQSLERRNGASGKVSRELLLSTFAAVAAERAHAAAGDPGNPADGAAHDAIATTSFSSPVGGALQSTFGGGHGMHEHLKEAYMTSMMGRGSGFMAKPNAAAGGADGESGEAADRVSYAEYLAFYAGVSPQFATDEAFVTHVLQSWAADDAARPALDETAREWGPDGDPLALDGPRYVKEALNLELGISSKSYNYSHMQREHPYVEPLPPLNRPDIMATTMQRTYVPFDKAAQMLADPLVTRRGQSK,not soluble
12,GKRLGIFTHDNPDPDSMSSAYALREIAKQFDVIADILYYGEILHQKNRAMVNLLEIPMIRAPEVDLSHYDAFAIVDSSGPGVNNSIPPDIDISIVIDHHPAEKVVAEFVDLREDVGATATILTEYIKELKITPSKILATALFFGIKSETDEFKRNTRTADFLACAFLYPFVDQDLIEKIESPSI,not soluble
13,MGSDKIHHHHHHMADNFLSQEEVDALLRGVTNEQEDDTPALDPAGVREYNLATQERIVRGRMPTLEIINERFARLLRIGLFNFLRRTTEVSVGPVKISKYSEFIRNLVVPTNLNLVQMKPLRGTALMVFDPTLVFLIVDNLFGGDGRFHTRVEGRDFTQTEQRIIQRVLAIVFETYAKSWEPVYKLEFEYIRSEMNTQFANIATPNEVVVSTTFNIELGSASGEIHFCFPYSMIEPIRDLLTSPLQGEALGVDKRWVRLMTQQIQSAEVMLIADLAKAEMTLGDILNMKVGDVIPLSISEEIEAKVDNVPVMQCKYGVFNGQYALRVEKLLRSNSSEYVKGEVPDGD,not soluble
14,MGSDKIHHHHHHMDRFDLGIVKVHRIEEWRGTFSPPAELFDGFSPDGWEPHAEEFAPEYYDPVSGKLFAFLQSWVLDTGTQRILFDTGAGNDKDRPNLPIFGNLQTGFLDNLAAAGFQPEDIDVVVCSHIHVDHVGWNTRLVDGRWEPTFRNARYVLPLADRAYWDPQDASAGPAGIGAAVNAGMFDDSVRPIIEAGRAEWAEDGFEVAEGLVLRSCPGHTPGSMMLEVSGGEDTAMFVGDVVHHPAQIYRPEWNSIFCEAPEDARETRRRVLDLAASREALLIPAHFGGSHMARVLRDGSGFRPVLDPMGSG,not soluble
15,MSLTVRFTESVSKQDLDALFEWAKASYGAESCWKTLYLNGLPLGNLSPEWVERVKKDWEAGCSESSDGIFLNADGWPDMGGRLQHLALGWHCAGLLDGWRNECFDLTDGGGNPLFTLERAAFRPFGLLSRAVHLNGLTESDGRWHFWIGRRSPHKAVDPNKLDNTAAGGVSGGEMPSEAVCRESSEEAGLDKTLLPLIRPVSQLHSLRSVSRGVHNEILYVFDAVLPETFLPENQDGEVAGFEKMDIGGLLDAMLSGNMMHDAQLVTLDAFCRYGLIDAAHPLSEWLDGIREGHHHHHH,not soluble
16,MPSTSMIEDRSEIERRRFEYLDHPADIQLHSWGSTMEEAFEACLVSMFGYMTDLAKVDEMYEFYWKASGDSLDGLLFQFLDEALNSFHAEPCFVAKRVEILRFDKKKFEIEFRGWGESFDTSKHETEADIKSPTYSNMQINEKPERCDIYVIVDI,not soluble
17,MARKKKTRRITDIMPIRKADKKIDITKARSGKKLTCYELDAKAREDKKKRKHKGLASGSRHSAVEEKANKLQNEIKDPKIGSKKKIPLVVEFVNKPEKGQVIPVIKQVKKQDPMKELENLENNEILNELLDALDAGKTISKSDQQFVDECLDRISELMEELGIEDEDESEDDLYRTFERMDINQFR,not soluble
18,MSSTKQKALKKIAKCLELGNSANVNEAAQAIKMAHRLMLKYGLEKDDIEFIKMGKTQSIHLLPANVGSNILKIIRGINTRFGVEAVLLNHKGLKKVEFIGSADRAIFAAFAFDIVYREMNEQTGQFKNSFAGTGTGQLEVTKRVNSFLAGWIEGALEKLPVIAPDEDSANKINDYIDKEFKNIDRETFKQQLKEAMANITADYEKGLKKGRTISVNRPVAGAQAPKLLK,not soluble
19,MSVSRYPVAIAGAGPAGSALALALQAQGVEALLLDRPLAQPFRIGESATPDVAGLLERLGAGHALDGQPGYHGNLSLWGSESPRLDHFLYRGRGHGWHLDRAGFDHALRQEAMARGVAVLGESGVDAIAPAAGGWRLRVRGLGEVEARVVVDAGGRRSPLAARLGISRCRLDRLQALACRVDGPGQLSGYSLVESAPYGWWYAAALPDGRALATLMTDQDLARELGLEHPANFLAAWRATRLLSERLPPPQRIDAAHAFAAHSGCVARAAGPGWICVGDALMGLDPLTSSGIACALGDALAAAPAIVAMLDGELAPARAYAKRADDCFRRYLAERRRHYRQENRWPEQPFWQRRAFSPAALAVPALEHHHHHH,not soluble
20,MGSDKIHHHHHHGIDNGTPKSKNEIGVNTIVKKSSRAAVTSNSSFTSFKLHAYIVKSNDIATSGWGNAYMDGIEYKGGQGSWATTSGTFYWPITEMQFFGYTNDVTYTAPASSNAYPTISYTLPDTPADQKDIIVAYSKDVTKPSDNTLNLTFQHILTRINFAVKLVDSSYTYTVESITITGAKGGTATYTFGGTEGKGGNWNITGSAPASGYSYTFDNTVTAKDGIYDYTQNDNSLMLYPQSLTDAKIIVKYKTEKDNATFFNDSKEVSLTGEWTNGQSIRYILTLPVGAEEMSVNTTYDENWDATDNEQTPKNPAS,not soluble
21,MAHHHHHHMMMMRPDAGRRGDRHEVTRSQWEMHNSVITDDAFLFPKMELMEELHKTQPWKKSPRYFQRVKVSVLAALQMMIHAKRGSPNVTCSNGSGVADSSAASMRNEPSRENWFEVMVLMLGHFNEDEMIVTSAFALPVDASEVECSMNDASQLYMLDFLQYHQRGGTQEGCIGWYHSHPGYTCFLSGTDVNTQQLGQTAQDPWLAIVVDPVRTISTGKLDMKAFRTFPEKYVAEQQGTSQHTQGKHWEGSTTSTWVPSERIREYGVHAHRYYELPITLVRSKDDEAQLECLWSRYWALTFCSNLFTANRKLMTKQIHQLAEVLESGVASRHQTMMKGDGYLPGHKLGSQHQRKGGGAVDDETPDGVEAFKQRSLHVRYLTSSLTSEAASGGNTAGGQKFRLSSMIFLLVLARVFLSF,not soluble
